Measured values: paper PMC10453824

Test system: T1, rVapB47 (rRv3407) (Mycobacterium bovis BCG Moreau), ORF:ad596061
T1 sequence: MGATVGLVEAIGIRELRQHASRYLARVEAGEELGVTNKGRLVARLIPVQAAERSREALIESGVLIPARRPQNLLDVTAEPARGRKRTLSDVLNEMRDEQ
Assay: EMSA

GGTGCTACATAATTGCGTTGCGCTTACTGGTTGATCAGCCAGCGATCTCCATCGGCGCCCCGCTGATCACCCGGCTAGCCTGCCCGTACACGTCGA (double strand) [07promF-R1 (96 bp)]
binding: no binding

TCGACGTGTACGGGCAGGCTAGCCGGGTGATCAGCGGGGCGCCGATGGAGATCGCTGGCTGATCAACCAGTAAGCGCAACGCAATTATGTAGCACCATGCGTGCTACCGTTGGGCTTGTGGA (double strand) [07promF-R2 (122 bp)]
binding: binds
